A value given as a limit tells only on which side of the number the result lay.

In the first data set the target is thymidylate synthase (TS) (zebrafish) (UniProt A0ACM8Q3Q5). The experiment in a line: competition EMSA. The note with it: 37 C, 10 min; 100 ng TS (200 ng in Fig. 5B legend), 1 ng 32P TS mRNA; non-denaturing 5% acrylamide gel (60:1); binding buffer, salt and pH not given (cited ref.). For orientation: A gel shift assay detects complexes by their altered migration in electrophoresis.
thymidylate synthase (TS) (zebrafish), sequence (A0ACM8Q3Q5 entry or part of it): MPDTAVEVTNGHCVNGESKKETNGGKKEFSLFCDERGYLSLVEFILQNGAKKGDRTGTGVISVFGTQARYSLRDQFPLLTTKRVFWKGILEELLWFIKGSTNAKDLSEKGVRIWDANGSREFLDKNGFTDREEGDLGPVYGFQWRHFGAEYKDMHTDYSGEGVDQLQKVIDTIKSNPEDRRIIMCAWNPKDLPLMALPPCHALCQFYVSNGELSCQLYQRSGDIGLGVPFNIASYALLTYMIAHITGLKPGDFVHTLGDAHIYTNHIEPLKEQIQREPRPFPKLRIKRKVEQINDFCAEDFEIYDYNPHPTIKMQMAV
Turning to TS37-74 (TS37-72 in Methods), the IC50 – broadly, the concentration that gives 50% inhibition – was over 1000 nM.
Same read-out and setting: for TS1-290 the value was 0.48 nM; for TS1-36, 0.6 nM; for TS291-580, over 1000 nM.
Regarding full-length TS mRNA (TS1-1163), the IC50 is 0.5 nM.
With TS581-1163, the IC50 was over 1000 nM.
For TS1-580, the IC50 was determined as 0.48 nM.
In the case of TS73-145, the IC50 is over 1000 nM.
Take TS146-290: the IC50 is over 1000 nM.
Still for that read-out and setting: under TS1-145 stands 0.52 nM; under TS1-72, 0.65 nM.

The data set is the same for the next values; noted with them: vs 32P full-length TS mRNA; 100-fold excess also did not compete (Fig. 3); 37 C, 10 min; 100 ng TS (200 ng in Fig. 5B legend), 1 ng 32P TS mRNA; non-denaturing 5% acrylamide gel (60:1); binding buffer, salt and pH not given (cited ref.).
With luciferase mRNA, the IC50 is over 1000 nM.

(Values after publication PMC2868900.)
